These results are taken from PMC3184163, “The Amino-Terminus of Nitric Oxide Sensitive Guanylyl Cyclase α1 Does Not Affect Dimerization but Influences Subcellular Localization” (PLoS ONE, 2011).

For data set [1], the target named is T1, nitric oxide sensitive guanylyl cyclase β1-subunit with carboxy-terminal Strep Tag II (UniProt P20595 1-619).
T1 construct: β1-subunit of nitric oxide sensitive guanylyl cyclase; PvuI/StuI fragment of the conjoined construct β1α1-Strep [27] in pFastBac1; predicted 72.2 kDa with tag; also called Strep tagged β1-subunit; source: Sf-9, recombinant baculovirus, cytosolic fraction; purified on Strep-Tactin Superflow; not shown: Strep Tag II, C-terminal, kept
T1 sequence (looked up): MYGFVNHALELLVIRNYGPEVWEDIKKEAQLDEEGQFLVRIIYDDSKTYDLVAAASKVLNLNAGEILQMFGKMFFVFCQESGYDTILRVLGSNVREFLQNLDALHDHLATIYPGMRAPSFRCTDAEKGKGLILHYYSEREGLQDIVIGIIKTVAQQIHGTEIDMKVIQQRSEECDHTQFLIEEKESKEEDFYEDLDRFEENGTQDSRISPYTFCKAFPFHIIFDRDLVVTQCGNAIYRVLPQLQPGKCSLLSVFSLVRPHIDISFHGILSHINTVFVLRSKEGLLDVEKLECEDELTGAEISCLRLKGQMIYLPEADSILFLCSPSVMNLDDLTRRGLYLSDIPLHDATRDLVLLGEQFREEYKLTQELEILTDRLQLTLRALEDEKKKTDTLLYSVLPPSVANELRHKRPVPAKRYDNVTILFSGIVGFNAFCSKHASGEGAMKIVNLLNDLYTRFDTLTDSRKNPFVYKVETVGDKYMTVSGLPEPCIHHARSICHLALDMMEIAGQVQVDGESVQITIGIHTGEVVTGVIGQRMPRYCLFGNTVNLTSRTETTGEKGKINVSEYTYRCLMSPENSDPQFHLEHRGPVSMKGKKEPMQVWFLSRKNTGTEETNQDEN
The data set is described as follows: pull-down; co-purification: α1 variant expressed with carboxy-terminally Strep Tag II tagged β1 in Sf-9; cytosolic fraction applied to Strep-Tactin Superflow resin; buffer W 100 mM Tris-HCl, 1 M NaCl, 1 mM EDTA, 1 mM benzamidine, 10 mM DTT, pH 8.0; eluted with 2.5 mM D-desthiobiotin; on ice or at 4°C; SDS-PAGE, Coomassie staining, densitometry; cells also cultured without supplement, with hemin (4 mg/l), or with …. Particulars: partners not purified.

Data set [2] addresses T2, nitric oxide sensitive guanylyl cyclase β1-subunit with carboxy-terminal Strep Tag II, P20595.
T2 chain: T1 sequence (looked up)
In words: pull-down; co-purification: α1 variant expressed with carboxy-terminally Strep Tag II tagged β1 in Sf-9; cytosolic fraction applied to Strep-Tactin Superflow resin; buffer W 100 mM Tris-HCl, 1 M NaCl, 1 mM EDTA, 1 mM benzamidine, 10 mM DTT, pH 8.0; eluted with 2.5 mM D-desthiobiotin; on ice or at ….

B1: nitric oxide sensitive guanylyl cyclase α1-subunit, wild type (human) (natural protein, UniProt Q02108-1 1-690, looked up)
chain: MFCTKLKDLKITGECPFSLLAPGQVPNESSEEAAGSSESCKATVPICQDIPEKNIQESLPQRKTSRSRVYLHTLAESICKLIFPEFERLNVALQRTLAKHKIKESRKSLEREDFEKTIAEQAVAAGVPVEVIKESLGEEVFKICYEEDENILGVVGGTLKDFLNSFSTLLKQSSHCQEAGKRGRLEDASILCLDKEDDFLHVYYFFPKRTTSLILPGIIKAAAHVLYETEVEVSLMPPCFHNDCSEFVNQPYLLYSVHMKSTKPSLSPSKPQSSLVIPTSLFCKTFPFHFMFDKDMTILQFGNGIRRLMNRRDFQGKPNFEEYFEILTPKINQTFSGIMTMLNMQFVVRVRRWDNSVKKSSRVMDLKGQMIYIVESSAILFLGSPCVDRLEDFTGRGLYLSDIPIHNALRDVVLIGEQARAQDGLKKRLGKLKATLEQAHQALEEEKKKTVDLLCSIFPCEVAQQLWQGQVVQAKKFSNVTMLFSDIVGFTAICSQCSPLQVITMLNALYTRFDQQCGELDVYKVETIGDAYCVAGGLHKESDTHAVQIALMALKMMELSDEVMSPHGEPIKMRIGLHSGSVFAGVVGVKMPRYCLFGNNVTLANKFESCSVPRKINVSPTTYRLLKDCPGFVFTPRSREELPPNFPSEIPGICHFLDAYQQGTNSKPCFQKKDVEDGNANFLGKASGID
notes: predicted 77.6 kDa; also called α1WT; α1 full-length; source: Sf-9, recombinant baculovirus, cytosolic fraction; co-purified with β1-S on Strep-Tactin
As for B1, the “ratio of band intensities of the α1 variant to β1” value in data set [1] worked out at 0.43.

B2: C-α1 splice variant of the nitric oxide sensitive guanylyl cyclase α1-subunit (human α1ΔN259) (domain or fragment, UniProt Q02108-1 259-690, looked up)
chain: MKSTKPSLSPSKPQSSLVIPTSLFCKTFPFHFMFDKDMTILQFGNGIRRLMNRRDFQGKPNFEEYFEILTPKINQTFSGIMTMLNMQFVVRVRRWDNSVKKSSRVMDLKGQMIYIVESSAILFLGSPCVDRLEDFTGRGLYLSDIPIHNALRDVVLIGEQARAQDGLKKRLGKLKATLEQAHQALEEEKKKTVDLLCSIFPCEVAQQLWQGQVVQAKKFSNVTMLFSDIVGFTAICSQCSPLQVITMLNALYTRFDQQCGELDVYKVETIGDAYCVAGGLHKESDTHAVQIALMALKMMELSDEVMSPHGEPIKMRIGLHSGSVFAGVVGVKMPRYCLFGNNVTLANKFESCSVPRKINVSPTTYRLLKDCPGFVFTPRSREELPPNFPSEIPGICHFLDAYQQGTNSKPCFQKKDVEDGNANFLGKASGID
notes: α1-subunit of nitric oxide sensitive guanylyl cyclase, human, amino-terminal deletion α1ΔN259; predicted 48 kDa; The name ΔN259 could also be read as loss of the first 259 residues; also called C-α1-splice form; source: Sf-9, recombinant baculovirus, cytosolic fraction; co-purified with β1-S on Strep-Tactin
On to B2, for which the “ratio of band intensities of the α1 variant to β1” value in data set [1] was 0.75. Besides, the “relative heterodimerization by densitometry (% of α1WT)” value in data set [2] is recorded as 166.2 % (±12.2 %).
